Values quoted from earlier work as cited in US20070231406A1, “Use of gallium to treat biofilm-associated infections” (priority 2006, published 2007).

Tested on: Pseudomonas aeruginosa biofilm
Settings: 20 μg/ml lactoferrin

B1: lactoferrin (protein, UniProt P02788 20-710, looked up)
Lactotransferrin: GRRRSVQWCAVSQPEATKCFQWQRNMRKVRGPPVSCIKRDSPIQCIQAIAENRADAVTLDGGFIYEAGLAPYKLRPVAAEVYGTERQPRTHYYAVAVVKKGGSFQLNELQGLKSCHTGLRRTAGWNVPIGTLRPFLNWTGPPEPIEAAVARFFSASCVPGADKGQFPNLCRLCAGTGENKCAFSSQEPYFSYSGAFKCLRDGAGDVAFIRESTVFEDLSDEAERDEYELLCPDNTRKPVDKFKDCHLARVPSHAVVARSVNGKEDAIWNLLRQAQEKFGKDKSPKFQLFGSPSGQKDLLFKDSAIGFSRVPPRIDSGLYLGSGYFTAIQNLRKSEEEVAARRARVVWCAVGEQELRKCNQWSGLSEGSVTCSSASTTEDCIALVLKGEADAMSLDGGYVYTAGKCGLVPVLAENYKSQQSSDPDPNCVDRPVEGYLAVAVVRRSDTSLTWNSVKGKKSCHTAVDRTAGWNIPMGLLFNQTGSCKFDEYFSQSCAPGSDPRSNLCALCIGDEQGENKCVPNSNERYYGYTGAFRCLAENAGDVAFVKDVTVLQNTDGNNNEAWAKDLKLADFALLCLDGKRKPVTEARSCHLAMAPNHAVVSRMDKVERLKQVLLHQQAKFGRNGSDCPDKFCLFQSETKNLLFNDNTECLARLHGKTTYEKYLGPQYVAGITNLKKCSTSPLLEACEFLRK
Pseudomonas aeruginosa biofilm formation: inhibited
